The labels stand for the following.
B1: GajA of the Gabija anti-phage defense system of Bacillus cereus VD045, with a C-terminal (His)6 tag, purified on its own (enzyme, UniProt J8H9C1 1-578, looked up)
chain: MKFSNITIKNFRNFEKVNINLDNKNVIFGMNDIGKTNFLYALRFLLDKEIRKFGFNKSDYHKHDTSKKIEIILTLDLSNYEKDEDTKKLISVVKGARTSANADVFYIALESKYDDKELYGNIILKWGSELDNLIDIPGRGNINALDNVFKVIYINPLVDLDKLFAQNKKYIFEESQGNESDEGILNNIKSLTDQVNQQIGEMTIIKGFQQEITSEYRSLKKEEVSIELKSEMAIKGFFSDIIPYIKKDGDSNYYPTSGDGRRKMLSYSIYNYLAKKKYEDKIVIYLIEEPEISLHRSMQIALSKQLFEQSTYKYFFLSTHSPELLYEMDNTRLIRVHSTEKVVCSSHMYNVEEAYGSVKKKLNKALSSALFAERVLLIEGPSEKILFEKVLDEVEPEYELNGGFLLEVGGTYFNHYVCTLNDLGITHIIKTDNDLKSKKGKKGVYELLGLNRCLNLLGRENLDEITIDIPEDIKGKKKKERLNERKKEIFKQYKNEVGEFLGERIYLSEIDLENDLYSAIGESMKRIFENEDPVHYLQKSKLFNMVELVNNLSTKDCFDVFEHEKFACLKELVGSDRG
notes: GajA, Bacillus cereus VD045, synthetic gene in pET21a; 67.0 kDa as printed; Tetramer by SEC-MALS and analytical SEC; also called individually purified GajA; separately purified GajA; source: E. coli BL21(DE3), purified (HisTrap HP, SEC Superdex 200)
B2: 3'-tailed dsDNA (dsDNA)
DNA 1: TCGGTACGACCTGCGAGCACTGCTT
DNA 2: AAGCAGTGCTCGCAGGTCGTACCGATTTTTTTTTTTTTTT
B3: GajB of the Gabija anti-phage defense system of Bacillus cereus VD045, purified on its own, (His)6-MBP tag cleaved by TEV protease (natural protein)
chain: MSREQIIKDGGNILVTAGAGSGKTTILVSKIEADLKENKTHYSIAAVTFTNKAAKEIEGRLGYSSRGNFIGTNDGFVESEIIRPFIKDAFGNDYPDNFTAEYFDNQFASYDKGLQVLKYQNILGTYSNPKKNFKFQLALDILKKSLVARQYIFSKYFKIFIDEYQDSDKDMHNLFMYLKDQLKIKLFIVGDPKQSIYIWRGAEPENFNGLIENSTDFNKYHLTSNFRCCQDIQNYSNLFNEETRSLIKEKNEVQNVISIADDMPISDILLKLTEEKQVLNIEAELVILVRRRNQAIEIMKELNEEGFNFIFIPQTPLDRATPNATLLKEVIKYVKNDRYSIYDLAAEIVGNLSSREIKEIQKIINELLVPNINQVLINQVLINLFAKLEITLDTREITAFTEVMMTNEFDIAFDTNEYLHKIFTVHSAKGLEFNQVIITASDYNVHYNRDTNEHYVATTRAKDKLIVIMDNKKYSDYIETLMKELKIKNIIKSI
notes: GajB, Bacillus cereus VD045, synthetic gene in pET28a with (His)6-MBP and a TEV site; 57.1 kDa as printed; the subdomains of the crystal structure span residues 1-494; the shorter of the two GajB forms that the discussion tells of (the long form has five more N-terminal residues); Monomer by SEC-MALS and analytical SEC; also called individually purified GajB; separately purified GajB; source: E. …

Data set [1] deals with the molecule itself. Kind of data set: SEC-MALS + SEC; each protein alone; Superdex 200 Increase 10/300 GL with miniDAWN/Optilab, 300 mM NaCl, 2 mM DTT, 5% glycerol, 20 mM HEPES pH 7.5, 20 μM, 25 °C; analytical SEC in the same buffer.
For data set [2], the target named is T1, GajB of the Gabija anti-phage defense system of Bacillus cereus VD045, purified on its own, (His)6-MBP tag … (Bacillus cereus VD045, UniProt J8HQ06 1-494).
T1 chain: B3 chain
Kind of data set: ITC.

In data set [3] the target is B3. The data set can be described thus: ITC; 4°C; 20 μM GajB in the cell titrated with 20 injections of 2 μl of 200 μM GajA; 300 mM NaCl, 1 mM TCEP, 10% glycerol, 20 mM HEPES pH 7.5; triplicate. As to conditions: both partners purified.
The target of data set [4] is T2, UvrD (Escherichia coli DH5alpha, UniProt P03018 1-720).
T2 sequence: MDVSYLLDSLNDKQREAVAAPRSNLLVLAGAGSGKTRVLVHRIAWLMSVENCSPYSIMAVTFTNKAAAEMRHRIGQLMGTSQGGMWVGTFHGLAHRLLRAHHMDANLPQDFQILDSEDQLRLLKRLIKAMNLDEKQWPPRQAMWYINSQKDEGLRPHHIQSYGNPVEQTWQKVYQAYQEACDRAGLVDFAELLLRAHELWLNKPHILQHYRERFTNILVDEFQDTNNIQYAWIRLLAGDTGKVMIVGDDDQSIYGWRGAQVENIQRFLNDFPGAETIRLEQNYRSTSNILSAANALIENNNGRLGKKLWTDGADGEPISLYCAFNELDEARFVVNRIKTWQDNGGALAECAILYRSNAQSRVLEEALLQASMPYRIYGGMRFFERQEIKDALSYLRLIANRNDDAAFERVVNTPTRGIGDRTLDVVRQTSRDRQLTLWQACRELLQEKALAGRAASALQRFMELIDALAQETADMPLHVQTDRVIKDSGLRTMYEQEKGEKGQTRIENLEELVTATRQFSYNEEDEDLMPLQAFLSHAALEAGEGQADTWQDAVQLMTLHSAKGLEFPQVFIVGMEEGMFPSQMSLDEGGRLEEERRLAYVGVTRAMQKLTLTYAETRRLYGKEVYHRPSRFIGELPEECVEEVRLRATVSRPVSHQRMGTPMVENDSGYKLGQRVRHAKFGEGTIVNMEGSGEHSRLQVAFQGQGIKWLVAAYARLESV
Kind of data set: EMSA; 10 uM protein, 5 uM DNA, 5 mM Mg2+, no ATP; EMSA: 5 mM MgCl2, 1 mM DTT, 0.75 uM BSA, 20 mM Tris-HCl pH 7.5, 25 C, 90 min; 2% agarose gel, ethidium bromide. As to conditions: protein: recombinant; tags: N-terminal His6-MBP removed with TEV protease (as for GajB); label: fluorescein on the 25-mer in helicase assay; 25 bp duplex, 3' overhang 15 nt (T15) on strand 2.

Data set [5] deals with T3, GajA;GajB (Bacillus cereus VD045;Bacillus cereus …, UniProt J8H9C1;J8HQ06 1-578;1-494, |).
T3 sequence 1: B1 chain
T3 sequence 2: B3 chain
The data set is described as above. As to conditions: protein: recombinant;recombinant; chain copies: 4;4; label: fluorescein on the 25-mer in helicase assay; 25 bp duplex, 3' overhang 15 nt (T15) on strand 2.

The target of data set [6] is T4, GajB (Bacillus cereus VD045, UniProt J8HQ06 1-494).
T4 sequence: B3 chain
The data set is described as above. As to conditions: protein: recombinant; tags: N-terminal His6-MBP removed with TEV protease; label: fluorescein on the 25-mer in helicase assay; 25 bp duplex, 3' overhang 15 nt (T15) on strand 2.

The target of data set [7] is B1. Kind of data set: SEC-MALS; GajA pre-incubated with an excess of GajB (molar ratio 4:8); Superdex 200 Increase 10/300 GL, 300 mM NaCl, 2 mM DTT, 5% glycerol, 20 mM HEPES pH 7.5, 25 °C. The conditions noted are these: both partners purified.
In data set [8] the target is B1. Kind of data set: ITC; 4°C; 20 μM GajB in the cell titrated with 20 injections of 2 μl of 200 μM GajA; 300 mM NaCl, 1 mM TCEP, 10% glycerol, 20 mM HEPES pH 7.5; triplicate. As to conditions: both partners purified.
Data set [9] has as its target B1. Kind of data set: SEC; analytical SEC, Superdex 200 10/300 GL; 300 mM NaCl, 2 mM DTT, 5% glycerol, 20 mM HEPES pH 7.5; samples 20 μM each, incubated at 4°C for 1 h before loading; also GajA pre-incubated with increasing amounts of GajB. As to conditions: both partners purified.

This note sets out measurements from publication PMC10681800, “Structural and functional investigation of GajB protein in Gabija anti-phage defense” (Nucleic Acids Research, 2023).

Where “and” joins values, the source holds several entries; their conditions need not be identical. Identical values can stand only once.

Take B1: the “stoichiometry N” value in data set [1] was 4; in [3], around 1. Moreover, the equilibrium dissociation constant (Kd) in data set [2] was 54.3 nM and 36.9 nM.

Consider B2, for which the binding result is given as “binds” in [4], “no binding” in [5] and “no binding” in data set [6].

On to B3, for which the “stoichiometry N” value in data set [7] is 4 GajB monomers per GajA tetramer (4:4); in data set [9], 4 GajB monomers per GajA tetramer. Also, the dissociation constant Kd in data set [8] was around 46.4 nM.
